The conditions of the data set: Escherichia coli (strain K12), Thermal, Fluorescence, whole UniProt chain shown.

“And” between values parts separate entries of the source, which are not always exact repeats. Equal values may be shown once.

B1: Iron-sulfur cluster assembly protein CyaY wild type, P27838 (protein)
chain: MNDSEFHRLADQLWLTIEERLDDWDGDSDIDCEINGGVLTITFENGSKIIINRQEPLHQVWLATKQGGYHFDLKGDEWICDRSGETFWDLLEQAATQQAGETVSFR
The Tm is the temperature at the midpoint of the melting transition. B1: the melting temperature (Tm) was 53.2 °C and 53.9 °C and 53.8 °C (pH 7, phosphate 20 mM); 49.2 °C and 50.9 °C (pH 7.2, Hepes 10 mM).

The record behind these values is FireProtDB (doi:10.1016/j.jmb.2003.11.056).
